Assay results reported in patent US20240010714A1 (MBRACE THERAPEUTICS, published 2024).

Assays:
Assay in all cases: alanine scan, high-throughput flow cytometry
[1] = molecular target: T1, GRP78 alanine scan variant R279A (human, UniProt P11021 19-654)
T1 construct: Member of the GRP78 alanine scan library
Description: (§1) To characterize the binding properties of the antibodies described in Example 1 for GRP78, epitope mapping analysis was carried out by alanine scan mutagenesis. An alanine scan library of GRP78 was constructed. Each anti-GRP78 antibody was then screened for binding to each individual GRP78 variant, allowing identification of the target protein residues involved in antibody binding.
(§2) Binding of each test antibody to each GRP78 variant in the alanine scanning library was determined by high-throughput flow cytometry under high stringency conditions (e.g., increased pH, increased salinity, increased temperature and/or increased wash time). Also included in the experiment was a commercially-available monoclonal antibody, 1H11-1H7, which was verified to bind to WT GFR78 on cells and thus determined to be a suitable positive control under these conditions (Thermo Fisher Scientific, Waltham, MA). Antibody binding to each of the GRP78 variant as measured by the fluorescence signal (raw fluorescence data minus the background), was normalized to its binding to the wildtype (WT) GRP78. For each GRP78 variant, such normalized binding to the test antibodies was plotted relative to that to the control antibody.

[2] = molecular target: T2, GRP78 alanine scan variant R261A (human, UniProt P11021 19-654)
T2 construct: Member of the GRP78 alanine scan library
T2 sequence (P11021 19-654 R261A limits assumed): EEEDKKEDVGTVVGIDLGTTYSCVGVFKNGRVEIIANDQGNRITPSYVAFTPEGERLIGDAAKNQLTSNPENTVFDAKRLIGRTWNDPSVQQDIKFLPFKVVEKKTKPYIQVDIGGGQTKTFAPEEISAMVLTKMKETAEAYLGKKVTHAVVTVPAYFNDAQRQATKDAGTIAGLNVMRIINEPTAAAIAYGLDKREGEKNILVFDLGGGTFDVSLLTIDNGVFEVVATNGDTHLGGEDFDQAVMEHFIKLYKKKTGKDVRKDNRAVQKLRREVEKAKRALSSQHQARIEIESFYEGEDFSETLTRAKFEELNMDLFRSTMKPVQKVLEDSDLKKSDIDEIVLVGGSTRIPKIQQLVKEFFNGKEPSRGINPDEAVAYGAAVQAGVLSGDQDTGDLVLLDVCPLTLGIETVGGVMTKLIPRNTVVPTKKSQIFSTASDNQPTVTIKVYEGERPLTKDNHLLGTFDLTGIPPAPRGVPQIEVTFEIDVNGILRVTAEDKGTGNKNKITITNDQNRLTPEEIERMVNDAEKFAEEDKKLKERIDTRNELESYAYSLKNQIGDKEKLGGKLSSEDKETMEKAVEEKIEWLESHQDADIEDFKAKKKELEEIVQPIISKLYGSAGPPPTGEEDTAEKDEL
Description: as §1, §2

[3] = molecular target: T3, GRP78 alanine scan variant H265A (human, UniProt P11021 19-654)
T3 construct: Member of the GRP78 alanine scan library
T3 sequence (P11021 19-654 H265A limits assumed): as the sequence (P11021 19-654 R261A limits assumed) above, with A243R, H247A counted along it
Description: as §1, §2

[4] = molecular target: T4, GRP78 alanine scan variant E329A (human, UniProt P11021 19-654)
T4 construct: Member of the GRP78 alanine scan library
T4 sequence (P11021 19-654 E329A limits assumed): as the sequence (P11021 19-654 R261A limits assumed) above, with A243R, E311A counted along it
Description: as §1, §2

T1 sequence (P11021 19-654 R279A limits assumed): as the sequence (P11021 19-654 R261A limits assumed) above, with A243R, R261A counted along it

| Binder | binding normalized to wildtype (WT) GRP78 [1] | binding normalized to wildtype (WT) GRP78 [2] | binding normalized to wildtype (WT) GRP78 [3] | binding normalized to wildtype (WT) GRP78 [4] |
| --- | --- | --- | --- | --- |
| anti-GRP78 antibody clone F6 (antibody, IgG1, V domains shown, Fully human mAb formatted as full-length IgG1; also called F6 mAb; Anti-GRP78 (F6)) VH: QVQLQQSGPGLVKPPQTLSLTCAISGDSVSSNSAAWNWIRQSPSRGLEWLGRTYYRSKWYNDYAVSVKSRITINPDTSKNQFSLQLNSVTPEDTAVYYCARDPYYYDSSGYYYFDAFDIWGQGTMVTVSS VL: SYELTQPHSVSVAPGQTARITCGGDNIGSKSVHWYQQRPGQAPVLVVYDDSDRPSGIPERFSGSNSENTATLTISGVEAGDEADYYCQVWDSTSHHVVFGGGTKLTVL | < 20% | < 20% |  |  |
| anti-GRP78 antibody clone B4 (antibody, IgG1, V domains shown, Fully human mAb formatted as full-length IgG1; also called B4 mAb) VH: QVRLQESGPGLVKPSQTLSLTCTVSGGSISSGGYYWSWIRQHPGKGLEWIGYIYYSGSTYYNPSLESRVTISVDTSKNQFSLKLSSVTAADTAVYYCARYSSIDAFEIWGQGTMVTVSS VL: SYVLTQPPSVSVAPGKTATITCGGDDIGSKSVHWYQQKPGQAPVLVVYDDGDRPSGIPERFSGSNSGNTATLAISRVEAGDEADYYCQVWDSSSDQYVFGSGTKLTVL |  | < 20% | < 20% | < 20% |
